Laboratory results reported in PMC10696041.

B1: MBP-CUB1CUB2 domains of PCPE-2, WT [human] / bone morphogenetic protein-1 [human] (parent)
chain 1: QSPERPVFTCGGILTGESGFIGSEGFPGVYPPNSKCTWKITVPEGKVVVLNFRFIDLESDNLCRYDFVDVYNGHANGQRIGRFCGTFRPGALVSSGNKMMVQMISDANTAGNGFMAMFSAAEPNERGDQYCGGLLDRPSGSFKTPNWPDRDYPAGVTCVWHIVAPKNQLIELKFEKFDVERDNYCRYDYVAVFNGGEVNDARRIGKYCGDSPPAPIVSERNELLIQFLSDLSLTADGFIGHYIFRPK
chain 2: AATSRPERVWPDGVIPFVIGGNFTGSQRAVFRQAMRHWEKHTCVTFLERTDEDSYIVFTYRPCGCCSYVGRRGGGPQAISIGKNCDKFGIVVHELGHVVGFWHEHTRPDRDRHVSIVRENIQPGQEYNFLKMEPQEVESLGETYDFDSIMHYARNTFSRGIFLDTIVPKYEVNGVKPPIGQRTRLSKGDIAQARKLYKCPACGETLQDSTGNFSSPEYPNGYSAHMHCVWRISVTPGEKIILNFTSLDLYRSRLCWYDYVEVRDGFWRKAPLRGRFCGSKLPEPIVSTDSRLWVEFRSSSNWVGKGFFAVYEAICGGDVKKDYGHIQSPNYPDDYRPSKVCIWRIQVSEGFHVGLTFQSFEIERHDSCAYDYLEVRDGHSESSTLIGRYCGYEKPDDIKSTSSRLWLKFVSDGSINKAGFAVNFFKEVDECSRPNRGGCEQRCLNTLGSYKCSCDPGYELAPDKRRCEAACGGFLTKLNGSITSPGWPKEYPPNKNCIWQLVAPTQYRISLQFDFFETEGNDVCKYDFVEVRSGLTADSKLHGKFCGSEKPEVITSQYNNMRVEFKSDNTVSKKGFKAHFFSEKRPALQPPRGRPHQLKFRVQKRNRTPQ

Variants of: B1
Test: SPR
Details: with bone morphogenetic protein-1 [human]; 50 nM MBP-CUB1CUB2; immobilized BMP-1 (1302 RU); parent: 17; read off a plot

Row | response | Variant
1 | 7.2 RU | chain 1 QSPERPVFTCGGILTGESGFIGSEGFPGVYPPNSKCTWKITVPEGAVVVLNFRFIDLESDNLCRYDFVDVYNGHANGQRIGRFCGTFRPGALVSSGNKMMVQMISDANTAGNGFMAMFSAAEPNERGDQYCGGLLDRPSGSFKTPNWPDRDYPAGVTCVWHIVAPKNQLIELKFEKFDVERDNYCRYDYVAVFNGGAVNDARRIGKYCGDSPPAPIVSEANELLIQFLSDLSLTADGFIGHYIFRPK [chain 1 K46A E197A R220A]
2 | 18 RU | chain 1 QSPERPVFTCGGILTGESGFIGSEGFPGVYPPNSKCTWKITVPEGKVVVLNFRFIDLESDNLCRYDFVDVYNGHANGQRIGRFCGTFRPGALVSSGNKMMVQMISDANTAGNGFMAMFSAAEPNERGDQYCGGLLDRPSGSFKTPNWPDADYPAGVTCVWHIVAPKNQLIELKFEKFDVERDNYCRYDYVAVFNGGEVNDARRIGKYCGDSPPAPIVSERNELLIQFLSDLSLTADGFIGHYIFRPK [chain 1 R150A]
3 | 16 RU | chain 1 QSPERPVFTCGGILTGESGFIGSEGFPGVYPPNSKCTWKITVPEGKVVVLNFRFIDLESDNLCRYDFVDVYNGHANGQRIGRFCGTARPGALVSSGNKMMVQMISDANTAGNGFMAMFSAAEPNERGDQYCGGLLDRPSGSFKTPNWPDRDYPAGVTCVWHIVAPKNQLIELKFEKFDVERDNYCRYDYVAVFNGGEVNDARRIGKYCGDSPPAPIVSERNELLIQFLSDLSLTADGFIGHYIFRPK [chain 1 F87A]

Same assay, conditions: with bone morphogenetic protein-1 [human]; 50 nM MBP-CUB1CUB2; immobilized BMP-1 (1302 and 1492 RU); parent: 100; read off a plot

Row | percent of parent (% binding / WT) | Variant
4 | 40 | chain 1 QSPERPVFTCGGILTGESGFIGSEGFPGVYPPNSKCTWKITVPEGAVVVLNFRFIDLESDNLCRYDFVDVYNGHANGQRIGRFCGTFRPGALVSSGNKMMVQMISDANTAGNGFMAMFSAAEPNERGDQYCGGLLDRPSGSFKTPNWPDRDYPAGVTCVWHIVAPKNQLIELKFEKFDVERDNYCRYDYVAVFNGGAVNDARRIGKYCGDSPPAPIVSEANELLIQFLSDLSLTADGFIGHYIFRPK [chain 1 K46A E197A R220A]
